Measurements published in patent US20080311122A1, “Antagonists of Hmgb1 and/or Rage and Methods of Use Thereof” (Medimmune, LLC, priority 2005, published 2008).
“Also recorded” adds a separate entry of the source.

B1: S16: human anti-HMG1 antibody, ATCC PTA-6259; VL/VH aa SEQ ID NO: 13/15 (antibody, listed as Homo sapiens, V domains shown)
VH: EVQLLESGGGLVQPGGSLRLSCAASGFTFSWYSMLWVRQAPGKGLEWVSYISPSGGFTNYADSVKGRFTISRDNSKNTLYLQMNSLRAEDTAVYYCARWDYNSGWYYDHWGQGTLVTVSS
VL: AQDIQMTQSPDTLSLSPGERATLSCRASQSVNSRNLAWYQQKPGQAPRLLIYGASTRATGIPDRFSGSVSGTEFTLTISSLQPDDFATYYCQQYNSYFTFGQGTKLEIK
B2: G20: human anti-HMG1 antibody; VL/VH aa SEQ ID NO: 46/48 (antibody, listed as Homo sapiens, V domains shown)
VH: EVQLLESGGGLVQPGGSLRLSCAASGFTFSWYDMFWVRQAPGKGLEWVSWISPSGGYTKYADSVKGRFTISRDNSKNTLYLQMNSLRAEDTAMYYCARSGLDYYDSSGYLDAFDIWGQGTMVTVSS
VL: AQDIQMTQSPSSVSASVGDRVTITCRASQDVSIWLAWYQQKPGKAPKLLIFGASRLQSGVPSRFSGSRSGADFTLTIDSVQPEDFASYYCQQADSFPLTFGGGTKVEIK
B3: G2: human anti-HMG1 IgG1 from Fab phage display library; VL/VH aa SEQ ID NO: 30/32 (antibody, listed as Homo sapiens, V domains shown)
VH: EVQLLESGGGLVQPGGSLRLSCAASGFTFSWYKMQWVRQAPGKGLEWVSGISPSGGSTAYADSVKGRFTISRDNSKNTLYLQMNSLRAEDTAVYYCAKMGLFNTGNSYVDYWGQGTLVTVSS
VL: AQSELTQPPSVSEAPGQRVTISCSGSTSNIGNNAVIWYQQLPGKAPKLLIYYDDLLPSGVSDRFSGSKSGTSGSLAISGLQSEDEADYYCASWDDNLNGPLFGGGTKLTVL
B4: E11: human anti-HMG1 antibody, recognizes HMG1 A-Box; VL/VH aa SEQ ID NO: 24/26 (antibody, listed as Homo sapiens, V domains shown)
VH: EVQLLESGGGLVQPGGSLRLSCAASGFTFSRYQMNWVRQAPGKGLEWVSSISPSGGHTHYADSVKGRFTISRDNSKNTLYLQMNSLRAEDTAVYYCAKDGRQGKISTVDHWGQGTLVTVSS
VL: AQDIQMTQSPGTLSLSPGERATLSCRASQSVRSNFLAWYQQKPGQAPRLLIYGASRRASGIPDRFSGSGFGADFTLSISRLEPEDFAVYYCQQYGSSPNTFGQGSRVEIK

Assays:
[1] = tested on: Tx-HMGB1+LPS stimulated IL-6 release (TLR4 signaling); assay: Inhibition of HMG1 mediated enhancement of TLR signaling, Tx-HMGB1+LPS in human PBMCs; type: cell-based
Experimental: Cytokine Release Assays: Human PBMCs were treated with rHMG1 in the presence or absence of Polymyxin B (FIG. 20). Human PBMCs were treated with rHMG1 and Tx-HMGB1 at concentrations up to 4 μg/ml (FIG. 21). ˜16 μg/mL (512 nM) Tx-HMGB1 was incubated with 61.5 EU/mL (6.15 ng/mL; approx. 0.615 nM) LPS overnight at 4° C. The sample was diluted as indicated and added to human PBMCs (FIG. 22). In all assays the cells were incubated overnight at 37° C., 5% CO2 and the supernatants were assayed for cytokine levels by Bioplex assay. When present Polymyxin B was used at 8 U/mL.
(§1) Inhibition of HMG1 Mediated Enhancement of TLR Signaling: Human PBMCs were treated with Tx-HMGB1+LPS (as described above) in combination with either the Anti-HMG1 antibody E11, S16 or G4, anti-TLR4 antibody, or isotype control antibodies (R3, IgG2a) and incubated overnight at 37° C., 5% CO2 in the presence of 8 U/mL Polymyxin B. The supernatants were assayed for cytokine levels (FIG. 22, right panel).

[2] = tested on: HMG1 enhancement of PAMP stimulation; assay: Inhibition of the enhancement of PAMP stimulation by HMG1 (Table 1 summary); type: cell-based; conditions: PAMP used and cytokine assayed are indicated
Experimental: as §1
Inhibition of HMG1 Mediated Enhancement of TLR Signaling: Freshly isolated bone marrow cells were stimulated with TLR9 ligand CpG2216 (0.3 μM) and thymus HMGB1 (10 μg/mL) in the presence of different concentration of the anti-HMGB1 mAb E11 or control human IgG for 24 hr and IFN-a in the supernatant was measured by ELISA. CpG2216, HMGB1 and nonstimulatory DNA were used alone or in combination as controls for the assay.

[3] = tested on: HMG1 induced TLR4 activation; assay: TLR4 activation assay (NF-κB luciferase reporter, 293 cells); type: cell-based, human
Experimental: TLR4 Activation Assay: HuTLR4 and CD14 stably expressed 293 cells (Invitrogen) were seeded in a 96 well plate at 2×10^4/well in 100 μl of DMEM with 10% FCS overnight. Cells were then transfected with NF-κB/Luc (Stratagene) luciferase reporter construct as indicated by the kit for 24 hr. A mixture of HMGB1 and anti-HMGB1 was added to cells at 100 μl/well overnight. The luciferase activity was then measured to reflect TLR4 activation (Promega).

[4] = tested on: THP-1 cells; assay: HMG1 binding to THP-1 cells; parameters: species or system human
Experimental: HMG1 binding to THP-1 Cells: Recombinant rat HMGB-1 was labeled using Eu-labelling Kit from PerkinElmer. Molar ratio of HMGB-1 to Eu is 1:5. THP-1 were cultured as the protocol from ATCC. Cells were harvested and suspended at concentration 1×10^6/ml in assay buffer containing 1×DELFIA L*R binding buffer (PerkinElmer), 50% of DELFIA stabilizer (PerkinElmer) and 0.05% of sodium azide. 100 μl of cells (1×10^5) was added into wells in 96 well cell culture plate. The plate was incubated with gentle shaking at 4° C. for one hour. 100 μl of assay buffer containing 2 nM of Europium-labeled HMGB-1 mixed with various concentrations (333, 166.5, 83.25, 41.6, 20.8, 10.4 and 5.2 nM) of human anti-HMGB1 antibodies E11 or G2 or soluble human RAGE-Fc, were added into each wells respectively. After one hour incubation with gentle shaking at 4° C., the cells were washed four times with 1×L*R wash buffer (PerkinElmer) by centrifuging at 1200 rpm×5 min. 200 μl of enhancement solution was added into each well to dissociate and enhance Eu fluorescence at 615 nm. The fluorescence was measured with Wallac Victor Fluorometer. Assay was performed in triplicate and human antibody R3-47 was used the negative isotype control.

[5] = tested on: HMG1 stimulated cytokine gene expression in mouse macrophages; assay: Taqman analysis of mouse macrophages (mMØ) stimulated with HMG1; type: cell-based; conditions: rHMG1
Experimental: Taqman Analysis of Mouse Macrophages (mMØ) Stimulated with HMG1: Mouse bone marrow was harvested by rinsing the femurs of normal C57BL/6 mice. The isolated bone marrow cells were then cultured in Dulbecco's modified Eagle's medium (DMEM) supplemented with 10% fetal bovine serum (FBS) and 50 ng/ml M-CSF for 24 h, nonadherent cells were collected and grown for 6 days in complete DMEM supplemented with 10% FBS and 50 ng/ml M-CSF in T-75 flasks (1×10^7 cells/15 ml/flask). On day 6, adherent cells were harvested and reseeded with 5 ng/ml MCSF in α-MEM containing 10% FBS in 96-well plates (1×10^5 cells/200 μl/well) overnight.
The culture medium was replaced with α-MEM and incubated for 2 hours before stimulation to starve cells. HMGB1 (recombinant CBP-HMGB1 fusion protein generated from E. coli at 10 μg/ml), mouse-RAGE-Fc or human-RAGE-Fc fusion protein were pre-mixed with various blocking reagents at 100 μg/ml in α-MEM for 20 min at RT, then 100 μl of the mixtures was added to the cells and incubated at 37° C. for 2 hours. The supernatant was then removed, and the RNA was extracted using Ambion's MagMAX™-96 Total RNA Isolation Kit. All of the recovered RNA were used in a reverse transcriptase (RT) reaction with SuperScript™ III and oligo(dT) primer (Invitrogen) for synthesis of cDNA. 1 μl or 2 μl of the resulting cDNA was used for real time quantitative PCR analysis (TaqMan) using ABI Prism 7700 or 7000.

[6] = tested on: LPS+HMG1 induced TNF-a release (TLR4 signaling); assay: Inhibition of HMG1 mediated enhancement of TLR4 signaling, LPS+HMG1 TNF-a release; type: cell-based, mouse

Molecule | inhibition of Tx-HMGB1+LPS induced IL-6 release [1] | Inhibition of Synergy (PAMP/Cytokine) [2] | block of HMG1 induced TLR4 activation [3] | block of HMG1 binding to THP-1 cells [4] | inhibition of HMG1-induced IL-1β gene expression [5] | inhibition of HMG1-induced TNF-a gene expression [5] | inhibition of TNF-a release induced by LPS+HMG1 [6] | inhibition of signaling by LPS alone [6]
B1 | reduction in IL-6 release to near background levels; also recorded: block the Tx-HMG1 mediated enhancement of TLR4 signaling; also recorded: can be inhibited | LPS/IL-6 | – | – | – | – | – | –
B2 | – | – | able to inhibit HMG1 activation of TLR4 | – | – | – | – | –
B3 | – | – | – | block the binding of HMG1 to THP-1 cells | significantly reduce HMG1-induced IL-1b gene expression; also recorded: robustly inhibited | significantly reduce HMG1-induced TNF-α gene expression; also recorded: robustly inhibited | – | –
B4 | reduction in IL-6 release to near background levels; also recorded: block the Tx-HMG1 mediated enhancement of TLR4 signaling; also recorded: can be inhibited | CpG/IFN-a, LPS/IL-6 | able to inhibit HMG1 activation of TLR4; also recorded: significant ability to block HMG1 induced TLR4 activation | block the binding of HMG1 to THP-1 cells | significantly reduce HMG1-induced IL-1b gene expression; also recorded: robustly inhibited | – | inhibits the release of TNF-a induced by LPS+HMG1; also recorded: could be blocked; also recorded: inhibit the release of TNFa induced by LPS+HMG1 | inhibit signaling by LPS alone
